Results as given in PMC3315321.

Biological target: T1, RIG-I (human, UniProt O95786 1-925)
T1 sequence: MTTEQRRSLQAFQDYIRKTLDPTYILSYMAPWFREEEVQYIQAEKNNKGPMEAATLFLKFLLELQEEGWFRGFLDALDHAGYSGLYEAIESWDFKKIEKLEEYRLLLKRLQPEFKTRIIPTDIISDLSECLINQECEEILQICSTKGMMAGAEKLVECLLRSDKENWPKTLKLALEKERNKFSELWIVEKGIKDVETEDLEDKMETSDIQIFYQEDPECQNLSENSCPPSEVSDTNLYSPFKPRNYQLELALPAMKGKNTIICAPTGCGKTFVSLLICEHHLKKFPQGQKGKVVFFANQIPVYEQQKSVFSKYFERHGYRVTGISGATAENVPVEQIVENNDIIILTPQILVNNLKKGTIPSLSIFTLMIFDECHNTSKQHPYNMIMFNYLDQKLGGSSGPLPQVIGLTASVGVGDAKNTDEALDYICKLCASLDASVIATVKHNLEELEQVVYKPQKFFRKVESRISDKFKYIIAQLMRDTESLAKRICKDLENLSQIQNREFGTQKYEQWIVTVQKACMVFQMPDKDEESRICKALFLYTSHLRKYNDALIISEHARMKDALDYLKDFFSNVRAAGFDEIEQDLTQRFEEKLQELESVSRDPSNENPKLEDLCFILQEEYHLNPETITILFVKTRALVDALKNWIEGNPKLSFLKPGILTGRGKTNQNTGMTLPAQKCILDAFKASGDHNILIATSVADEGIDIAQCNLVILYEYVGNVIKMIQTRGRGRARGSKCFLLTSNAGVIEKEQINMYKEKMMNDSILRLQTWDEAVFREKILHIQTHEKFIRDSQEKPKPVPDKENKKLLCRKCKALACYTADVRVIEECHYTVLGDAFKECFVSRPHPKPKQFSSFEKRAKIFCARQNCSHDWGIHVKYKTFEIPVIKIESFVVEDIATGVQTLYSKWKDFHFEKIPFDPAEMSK
Experiment: filter binding

B1: CL9 (AP-treated) (XNA)
RNA: GGGAGAGCGGAAGCGUGCUGGGCCACCAUCCGUAACUAGCUAAUACUUGUUAUCUUUUUAUUUUCAUAACCCAGAGGUCGAUGGAUCCCCCC
modifications: 2'-F U and 2'-F C (all)
Kd: 37.2 nM
